According to paper PMC2688778 (Structure (London, England : 1993), 2009):

Assays:
[1] = target: T1, RecE564 F665A (Escherichia coli K12, UniProt P15032 564-866, F665A); assay: fluorescence anisotropy
T1 sequence: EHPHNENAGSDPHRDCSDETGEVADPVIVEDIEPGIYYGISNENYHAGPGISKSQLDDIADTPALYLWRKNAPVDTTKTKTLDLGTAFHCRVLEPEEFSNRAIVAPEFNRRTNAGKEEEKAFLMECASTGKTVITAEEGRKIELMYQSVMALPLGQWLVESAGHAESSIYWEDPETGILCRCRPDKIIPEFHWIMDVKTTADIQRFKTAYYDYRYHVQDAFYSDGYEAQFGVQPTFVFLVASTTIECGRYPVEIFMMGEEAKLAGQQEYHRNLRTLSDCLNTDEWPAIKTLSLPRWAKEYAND

[2] = target: T2, RecE606 P658L (Escherichia coli K12, UniProt P15032 606-866, P658L); assay: fluorescence anisotropy
T2 sequence: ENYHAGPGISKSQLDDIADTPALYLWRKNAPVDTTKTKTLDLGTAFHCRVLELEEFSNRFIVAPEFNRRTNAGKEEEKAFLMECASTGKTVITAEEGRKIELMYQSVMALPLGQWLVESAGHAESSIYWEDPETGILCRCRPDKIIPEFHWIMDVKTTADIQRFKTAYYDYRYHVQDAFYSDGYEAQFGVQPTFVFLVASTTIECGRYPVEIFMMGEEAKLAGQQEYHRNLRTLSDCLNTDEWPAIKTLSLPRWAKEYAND

B1: F25 (dsDNA)
DNA 1: TAGAGCTTAATTGCTGAATCTGGTG
DNA 2: CACCAGATTCAGCAATTAAGCTCTA
- Kd [1]: 200 ± 20 nM
- Kd [2]: 110 ± 20 nM
